Experimental findings from patent publication US20140370026A1 are described below.

The target of the test is CD46 (UniProt P15529). Description: cell-based or functional assay.
Sequence of CD46 (P15529 35-392 limits assumed): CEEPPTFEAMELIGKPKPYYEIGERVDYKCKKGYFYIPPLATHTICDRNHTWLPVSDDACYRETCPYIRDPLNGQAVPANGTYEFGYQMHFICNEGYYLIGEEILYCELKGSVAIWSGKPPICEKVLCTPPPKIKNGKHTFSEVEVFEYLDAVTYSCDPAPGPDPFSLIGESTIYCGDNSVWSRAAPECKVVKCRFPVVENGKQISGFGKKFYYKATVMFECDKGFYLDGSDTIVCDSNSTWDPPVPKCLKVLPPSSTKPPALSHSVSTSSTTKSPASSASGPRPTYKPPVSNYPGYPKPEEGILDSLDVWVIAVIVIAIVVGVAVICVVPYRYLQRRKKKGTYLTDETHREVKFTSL

The substance “anti-CD46 antibody J4.48 (Chemicon International)” registered an inhibition of human CMV (BADrUL131) infectivity of ARPE-19 epithelial cells (IE1 immunofluorescence) of 77%.
